We go through 1 substance from publication PMC10966353.

This experiment deals with A/Singapore/INFIMH-16-0019/2016 hemagglutinin with a C-terminal sfGFP, GCN4 trimerization domain and Strep-tag (influenza A virus A/Singapore/INFIMH-16-0019/2016). Nature of the experiment: negative stain electron microscopy.

A word on the stoichiometry N: it is a count of units in the complex or per binding partner.

Turning to “A/Singapore/INFIMH-16-0019/2016 hemagglutinin with a C-terminal sfGFP, GCN4 trimerization domain and Strep-tag”, the stoichiometry N is 3.
